The source of these data is article doi:10.1101/2023.06.21.545551, “Intrinsically disordered regions in the transcription factor MYC:MAX modulate DNA binding via intramolecular interactions”.

Data set [1] concerns the target T1, MYC(151-439);MAX(2-160) of commercial complex (human?;human?, UniProt P01106-1;P61244 ;, |). The experiment in a line: SPR; affinity between P3+P6 and full length; SPR: 25 mM HEPES pH 8, 150 mM NaCl, 1 mM TCEP, 0.01% Tween-20, 3 mM EDTA, temperature not stated; NMR: 20 mM HEPES pH 7, 100 mM NaCl (E100; or E300), 2 mM TCEP, 5% D2O, 298 K (complexes) or 283 K (disordered fragments). As to conditions: protein: commercial;commercial; copies: 1;1; label: 5'-biotin on strand 1; blunt. On the technique in general: SPR reads the build-up and loss of mass on a sensor chip optically.

Data set [2] has as its target T2, MYC(2-439) full-length;MAX(2-160) (human?;human?, UniProt P01106-1;P61244 ;, |). Nature of the data set: SPR; range over canonical and mutant E-Boxes; SPR: 25 mM HEPES pH 8, 150 mM NaCl, 1 mM TCEP, 0.01% Tween-20, 3 mM EDTA, temperature not stated; NMR: 20 mM HEPES pH 7, 100 mM NaCl (E100; or E300), 2 mM TCEP, 5% D2O, 298 K (complexes) or 283 K (disordered fragments). The settings on record: protein: recombinant;recombinant; tags: none;N-Strep-TEV, cleavable; copies: 1;1; label: 5'-biotin on strand 1; blunt.

For data set [3], the target named is MYC(352-437);MAX(2-160) co-expressed (human?;human?, UniProt P01106-1;P61244 ;, |). Nature of the data set: SPR; strongest of the four DNAs; Kd only in figure; SPR: 25 mM HEPES pH 8, 150 mM NaCl, 1 mM TCEP, 0.01% Tween-20, 3 mM EDTA, temperature not stated; NMR: 20 mM HEPES pH 7, 100 mM NaCl (E100; or E300), 2 mM TCEP, 5% D2O, 298 K (complexes) or 283 K (disordered fragments). As to conditions: protein: recombinant;recombinant; tags: N-His6 uncleavable;none; copies: 1;1; label: 5'-biotin on strand 1; blunt.
Chain of MYC(352-437);MAX(2-160) co-expressed (P01106 other isoform, or with tags, fused parts or gaps |, chain 1 of 2): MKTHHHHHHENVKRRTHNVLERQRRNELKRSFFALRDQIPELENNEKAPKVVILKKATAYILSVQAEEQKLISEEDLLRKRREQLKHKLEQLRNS
Chain of MYC(352-437);MAX(2-160) co-expressed (P61244 whole entry, chain 2 of 2, the tested form may be a part): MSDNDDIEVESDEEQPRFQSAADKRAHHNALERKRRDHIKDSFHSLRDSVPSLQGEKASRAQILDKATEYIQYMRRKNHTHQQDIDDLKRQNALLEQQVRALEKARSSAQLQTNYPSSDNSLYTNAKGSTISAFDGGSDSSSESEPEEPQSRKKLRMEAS

The next data set concerns the target MYC(256-299) (UniProt P01106-1). Nature of the data set: NMR; SPR: 25 mM HEPES pH 8, 150 mM NaCl, 1 mM TCEP, 0.01% Tween-20, 3 mM EDTA, temperature not stated; NMR: 20 mM HEPES pH 7, 100 mM NaCl (E100; or E300), 2 mM TCEP, 5% D2O, 298 K (complexes) or 283 K (disordered fragments). As to conditions: protein: recombinant; tags: His6-ZZ-TEV cleaved; 15N; blunt.
The target of the next data set is Mb0 peptide MYC(11-34) (UniProt P01106-1). Nature of the data set: NMR; equimolar DNA; SPR: 25 mM HEPES pH 8, 150 mM NaCl, 1 mM TCEP, 0.01% Tween-20, 3 mM EDTA, temperature not stated; NMR: 20 mM HEPES pH 7, 100 mM NaCl (E100; or E300), 2 mM TCEP, 5% D2O, 298 K (complexes) or 283 K (disordered fragments). As to conditions: protein: recombinant; tags: His6-MBP-TEV cleaved; 13C-MTC on C25; blunt.
Chain of Mb0 peptide MYC(11-34) (P01106 other isoform, or with tags, fused parts or gaps): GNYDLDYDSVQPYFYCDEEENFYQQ

Data set [4] addresses MYC(1-439)_C0,C25;MAX(2-160) (human?;human?, UniProt P01106-1;P61244 ;, C70A;C117A;C133A;C171A;C188A;C208A;C300A;C342A;C438A|). Nature of the data set: NMR; 13C-MTC on C25; 10-fold DNA; SPR: 25 mM HEPES pH 8, 150 mM NaCl, 1 mM TCEP, 0.01% Tween-20, 3 mM EDTA, temperature not stated; NMR: 20 mM HEPES pH 7, 100 mM NaCl (E100; or E300), 2 mM TCEP, 5% D2O, 298 K (complexes) or 283 K (disordered fragments). The settings on record: protein: recombinant;recombinant; tags: 13C-MTC label on C25;N-Strep-TEV, cleavable; copies: 1;1; blunt.

Data set [5] addresses T2, MYC(2-439) full-length;MAX(2-160). Nature of the data set: SPR; negative control bound only by MYC(352-437):MAX; SPR: 25 mM HEPES pH 8, 150 mM NaCl, 1 mM TCEP, 0.01% Tween-20, 3 mM EDTA, temperature not stated; NMR: 20 mM HEPES pH 7, 100 mM NaCl (E100; or E300), 2 mM TCEP, 5% D2O, 298 K (complexes) or 283 K (disordered fragments). As to conditions: protein: recombinant;recombinant; tags: none;N-Strep-TEV, cleavable; copies: 1;1; label: 5'-biotin on strand 1; blunt.

Data set [6] deals with T1, MYC(151-439);MAX(2-160) of commercial …. Described as above. The settings on record: protein: commercial;commercial; copies: 1;1; label: 5'-biotin on strand 1; blunt.

T2 sequence (P01106 17-454, chain 1 of 2): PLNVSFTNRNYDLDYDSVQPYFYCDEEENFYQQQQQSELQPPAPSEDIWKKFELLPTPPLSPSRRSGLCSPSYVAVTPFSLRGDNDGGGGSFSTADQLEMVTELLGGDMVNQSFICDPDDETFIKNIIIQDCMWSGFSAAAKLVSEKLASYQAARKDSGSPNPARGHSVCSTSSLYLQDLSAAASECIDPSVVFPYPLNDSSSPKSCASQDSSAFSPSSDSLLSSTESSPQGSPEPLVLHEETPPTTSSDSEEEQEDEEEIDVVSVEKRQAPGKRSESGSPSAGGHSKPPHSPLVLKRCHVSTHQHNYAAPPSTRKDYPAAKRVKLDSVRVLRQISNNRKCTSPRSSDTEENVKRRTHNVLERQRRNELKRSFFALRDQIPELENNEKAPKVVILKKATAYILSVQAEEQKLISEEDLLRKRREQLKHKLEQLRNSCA
T2 sequence (P61244 other isoform, or with tags, fused parts or gaps |, chain 2 of 2): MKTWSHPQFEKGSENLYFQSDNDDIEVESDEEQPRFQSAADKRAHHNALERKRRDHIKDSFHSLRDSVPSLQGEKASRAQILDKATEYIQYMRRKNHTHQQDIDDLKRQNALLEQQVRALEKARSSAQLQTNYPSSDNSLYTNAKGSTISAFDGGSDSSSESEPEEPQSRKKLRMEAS
T1 sequence (P01106 166-454, chain 1 of 2): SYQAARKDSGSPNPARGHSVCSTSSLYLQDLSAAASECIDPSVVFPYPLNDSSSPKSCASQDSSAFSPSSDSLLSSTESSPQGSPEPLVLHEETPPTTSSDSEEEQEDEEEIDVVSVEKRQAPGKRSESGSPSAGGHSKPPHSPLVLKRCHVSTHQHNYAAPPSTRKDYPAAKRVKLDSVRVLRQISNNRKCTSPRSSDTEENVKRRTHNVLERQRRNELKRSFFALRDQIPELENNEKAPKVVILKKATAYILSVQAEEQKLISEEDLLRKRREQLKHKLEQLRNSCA
T1 sequence (P61244 other isoform, or with tags, fused parts or gaps |, chain 2 of 2): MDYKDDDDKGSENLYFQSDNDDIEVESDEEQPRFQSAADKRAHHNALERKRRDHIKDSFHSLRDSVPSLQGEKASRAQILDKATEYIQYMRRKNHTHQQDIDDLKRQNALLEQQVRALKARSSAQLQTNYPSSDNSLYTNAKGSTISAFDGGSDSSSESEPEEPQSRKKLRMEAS
Chain of MYC(1-439)_C0,C25;MAX(2-160) (P01106 other isoform, or with tags, fused parts or gaps C70A;C117A;C133A;C171A;C188A;C208A;C300A;C342A;C438A|, chain 1 of 2): as the sequence (P01106 17-454, chain 1 of 2) above, with C24A, C69A, C116A, C132A, C170A, C187A, C207A, C299A, C341A, C437A counted along it
Chain of MYC(256-299) (P01106 other isoform, or with tags, fused parts or gaps): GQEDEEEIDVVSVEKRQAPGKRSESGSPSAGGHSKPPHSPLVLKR

B1: E-Box (SPR) (dsDNA)
DNA 1: CCGGTCACGTGGCCTA
DNA 2: TAGGCCACGTGACCGG
With B1, the binding result in data set [1], in data set [2] and in data set [3] was “binds” each time.

B2: E-Box (NMR) (dsDNA)
DNA 1: CCGGTCACGTGGCCTA
DNA 2: TAGGCCACGTGACCGG
On to B2, for which the binding result is recorded as “no binding” in the data set with MYC(256-299), “no binding” with Mb0 peptide MYC(11-34) and “binds” in data set [4].

B3: Negative control (dsDNA)
DNA 1: CCGGTTTAGCAGCCTA
DNA 2: TAGGCTGCTAAACCGG
Consider B3, for which the binding result in data set [5] and in data set [6] was “no binding” throughout.
